Numbering of substitutions follows the chain as printed. Names may count otherwise.
B1: FIXa-Y155F/K247N/N249S/R318Y/R403E/E410N (protein)
chain 1: YNSGKLEEFVQGNLERECMEEKCSFEEAREVFENTERTTEFWKQYVDGDQCESNPCLNGGSCKDDINSYECWCPFGFEGKNCELDVTCNIKNGRCEQFCKNSADNKVVCSCTEGYRLAENQKSCEPAVPFPCGRVSVSQTSKLTR
chain 2: VVGGEDAKPGQFPWQVVLNGKVDAFCGGSIVNEKWIVTAAHCVETGVKITVVAGEHNIEETEHTEQNRSVIRIIPHHNYNAAINKYNHDIALLELDEPLVLNSYVTPICIADKEYTNIFLKFGSGYVSGWGRVFHKGYSALVLQYLRVPLVDRATCLRSTKFTIYNNMFCAGFHEGGRDSCQGDSGGPHVTEVEGTSFLTGIISWGEECAMKGKYGIYTKVSEYVNWIKNKTKLT
B2: FIXa variant Y155F/R318Y/R338E/R403E/E410N (protein)
chain 1: B1 chain 1
chain 2: B1 chain 2 with N67K, S69N, R158E
B3: FIXa-Y155F/R318Y/R338E/T343R/E410N (protein)
chain 1: B1 chain 1
chain 2: B1 chain 2 with N67K, S69N, R158E, T163R, E223R
B4: FIXa Y155F/K228N/K247N/N249S/R318Y/R338E/R403E/E410N (protein)
chain 1: B1 chain 1
chain 2: B1 chain 2 with K48N, R158E
B5: FIXa variant D203N/F205T/E410N (protein)
chain 1: B1 chain 1
chain 2: B1 chain 2 with D23N, F25T, N67K, S69N, Y138R, E223R
B6: FIXa-R338E/T343R/R403E/E410N (protein)
chain 1: B1 chain 1
chain 2: B1 chain 2 with N67K, S69N, Y138R, R158E, T163R
B7: FIXa variant D203N/F205T/R338E (protein)
chain 1: B1 chain 1
chain 2: B1 chain 2 with D23N, F25T, N67K, S69N, Y138R, R158E, E223R, N230E
B8: FIXa variant Y155F/R318Y/R403E/E410N (protein)
chain 1: B1 chain 1
chain 2: B1 chain 2 with N67K, S69N
B9: FIXa K293A/R338A/R403A (protein)
chain 1: B1 chain 1
chain 2: B1 chain 2 with N67K, S69N, K113A, Y138R, R158A, E223A, N230E
B10: FIXa R318Y/R338E/R403E/E410N/T412V (protein)
chain 1: B1 chain 1
chain 2: B1 chain 2 with N67K, S69N, R158E, T232V
B11: FIXa R318Y/R338E/R403E/E410N/T412A (protein)
chain 1: B1 chain 1
chain 2: B1 chain 2 with N67K, S69N, R158E, T232A
B12: FIXa-Y155F/K247N/N249S/R338E/R403E/E410N (protein)
chain 1: B1 chain 1
chain 2: B1 chain 2 with Y138R, R158E
B13: FIXa variant Y155F/R318Y/R338E/R403E (protein)
chain 1: B1 chain 1
chain 2: B1 chain 2 with N67K, S69N, R158E, N230E
B14: FIXa-R318Y/T343R/R403E/E410N (protein)
chain 1: B1 chain 1
chain 2: B1 chain 2 with N67K, S69N, T163R
B15: FIXa-R318Y/R338E/T343R/R403E (protein)
chain 1: B1 chain 1
chain 2: B1 chain 2 with N67K, S69N, R158E, T163R, N230E
B16: FIXa variant D203N/F205T/R338E/R403E (protein)
chain 1: B1 chain 1
chain 2: B1 chain 2 with D23N, F25T, N67K, S69N, Y138R, R158E, N230E
B17: FIXa variant D104N/K106S/Y155F/R318Y/R338E/R403E/E410N (protein)
chain 1: B1 chain 1 with D104N, K106S
chain 2: B1 chain 2 with N67K, S69N, R158E
B18: FIXa-Y155F/R318Y/T343R/R403E/E410N (protein)
chain 1: B1 chain 1
chain 2: B1 chain 2 with N67K, S69N, T163R
B19: FIXa variant R318Y/R338E/E410N (protein)
chain 1: B1 chain 1
chain 2: B1 chain 2 with N67K, S69N, R158E, E223R
B20: FIXa-K247N/N249S/R318Y/R403E/E410N (protein)
chain 1: B1 chain 1
chain 2: B1 chain 2
B21: FIXa variant K228N/R318Y/E410N (protein)
chain 1: B1 chain 1
chain 2: B1 chain 2 with K48N, N67K, S69N, E223R
B22: FIXa variant A103N/N105S/R318Y/R338E/R403E/E410N (protein)
chain 1: B1 chain 1 with A103N, N105S
chain 2: B1 chain 2 with N67K, S69N, R158E
B23: FIXa variant D104N/K106S/R318Y/R338E/R403E/E410N (protein)
chain 1: B1 chain 1 with D104N, K106S
chain 2: B1 chain 2 with N67K, S69N, R158E
B24: FIXa variant D203N/F205T/R338A (protein)
chain 1: B1 chain 1
chain 2: B1 chain 2 with D23N, F25T, N67K, S69N, Y138R, R158A, E223R, N230E
B25: FIXa-D104N/K106S/Y155F/K247N/N249S/R318Y/R338E/R403E/E410N (protein)
chain 1: B1 chain 1 with D104N, K106S
chain 2: B1 chain 2 with R158E
B26: FIXa variant K228N/R338E/R403E (protein)
chain 1: B1 chain 1
chain 2: B1 chain 2 with K48N, N67K, S69N, Y138R, R158E, N230E
B27: FIXa variant D203N/F205T/R318Y (protein)
chain 1: B1 chain 1
chain 2: B1 chain 2 with D23N, F25T, N67K, S69N, E223R, N230E
B28: FIXa R318Y/R338E/R403E/T412A (protein)
chain 1: B1 chain 1
chain 2: B1 chain 2 with N67K, S69N, R158E, N230E, T232A
B29: FIXa variant Y155F/R318Y/R338E/E410N (protein)
chain 1: B1 chain 1
chain 2: B1 chain 2 with N67K, S69N, R158E, E223R
B30: FIXa variant D203N/F205T/R318Y/E410N (protein)
chain 1: B1 chain 1
chain 2: B1 chain 2 with D23N, F25T, N67K, S69N, E223R
B31: FIXa variant D203N/F205T/K228N (protein)
chain 1: B1 chain 1
chain 2: B1 chain 2 with D23N, F25T, K48N, N67K, S69N, Y138R, E223R, N230E
B32: FIXa variant R318Y/R403E/E410N (protein)
chain 1: B1 chain 1
chain 2: B1 chain 2 with N67K, S69N
B33: FIXa variant D104N/K106S/R318Y/R338E/E410N (protein)
chain 1: B1 chain 1 with D104N, K106S
chain 2: B1 chain 2 with N67K, S69N, R158E, E223R
B34: FIXa variant R318Y/R338E/R403E/E410N (protein)
chain 1: B1 chain 1
chain 2: B1 chain 2 with N67K, S69N, R158E
B35: FIXa K293E/R338E/R403E (protein)
chain 1: B1 chain 1
chain 2: B1 chain 2 with N67K, S69N, K113E, Y138R, R158E, N230E
B36: FIXa variant A103N/N105S/Y155F/R318Y/R338E/R403E/E410N (protein)
chain 1: B1 chain 1 with A103N, N105S
chain 2: B1 chain 2 with N67K, S69N, R158E
B37: FIXa-K247N/N249S/R338E/R403E/E410N (protein)
chain 1: B1 chain 1
chain 2: B1 chain 2 with Y138R, R158E
B38: FIXa-Y155F/R318Y/R338E/T343R/R403E (protein)
chain 1: B1 chain 1
chain 2: B1 chain 2 with N67K, S69N, R158E, T163R, N230E

Columns and labels:
[1] = target: Factor X, P00742
Sequence of Factor X, P00742 (P00742 whole entry, looked up): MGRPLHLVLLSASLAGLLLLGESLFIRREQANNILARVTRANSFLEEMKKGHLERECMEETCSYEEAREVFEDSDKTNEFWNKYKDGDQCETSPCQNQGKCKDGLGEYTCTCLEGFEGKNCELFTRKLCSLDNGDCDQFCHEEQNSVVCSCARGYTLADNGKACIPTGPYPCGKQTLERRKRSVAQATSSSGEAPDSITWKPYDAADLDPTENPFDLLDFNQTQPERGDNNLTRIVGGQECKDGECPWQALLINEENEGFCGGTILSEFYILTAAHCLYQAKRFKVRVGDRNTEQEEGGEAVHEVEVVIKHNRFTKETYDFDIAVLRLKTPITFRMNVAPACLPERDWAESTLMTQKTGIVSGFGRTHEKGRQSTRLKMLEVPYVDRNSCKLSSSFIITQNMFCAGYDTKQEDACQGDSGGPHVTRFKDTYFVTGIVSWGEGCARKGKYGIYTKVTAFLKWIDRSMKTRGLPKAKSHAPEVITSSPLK

[2] = target: Factor X (FX), P00742
Sequence of Factor X (FX), P00742 (P00742 whole entry, looked up): as above

Row | Protein | % of WT kcat/KM [1] | kcat/KM [1] | % of WT kcat/KM [2] | kcat/KM [2] | other results
1 | B1 | 22% | 1e+07 M⁻¹ s⁻¹ | – | – | kcat [1]: 1.2 s⁻¹
2 | B2 | – | – | 406% | 1.9e+08 M⁻¹ s⁻¹ | –
3 | B3 | 794% | 3.7e+08 M⁻¹ s⁻¹ | – | – | kcat [1]: 9.2 s⁻¹
4 | B4 | 263% | 1.2e+08 M⁻¹ s⁻¹ | – | – | KM (FX activation by FIXa in Xase complex with FVIIIa, PC/PS vesicles, Ca2+) [1]: 45.4 nM
5 | B5 | – | – | 91% | 4.2e+07 M⁻¹ s⁻¹ | –
6 | B6 | 650% | 3e+08 M⁻¹ s⁻¹ | – | – | kcat [1]: 9.8 s⁻¹
7 | B7 | – | – | 228% | 1e+08 M⁻¹ s⁻¹ | –
8 | B8 | – | – | 78% | 3.6e+07 M⁻¹ s⁻¹ | –
9 | B9 | – | – | – | – | KM of FX activation by FIXa in the Xase complex (FVIIIa, PC/PS vesicles, Ca2+); fluorogenic FXa substrate [1]: 65.4 nM
10 | B10 | 342% | 1.6e+08 M⁻¹ s⁻¹ | – | – | KM (FX activation by FIXa in Xase complex with FVIIIa, PC/PS vesicles, Ca2+) [1]: 48.3 nM
11 | B11 | 538% | 2.5e+08 M⁻¹ s⁻¹ | – | – | KM (FX activation by FIXa in Xase complex with FVIIIa, PC/PS vesicles, Ca2+) [1]: 34.4 nM
12 | B12 | 229% | 1.1e+08 M⁻¹ s⁻¹ | – | – | kcat [1]: 5 s⁻¹
13 | B13 | – | – | 189% | 8.7e+07 M⁻¹ s⁻¹ | –
14 | B14 | 125% | 5.8e+07 M⁻¹ s⁻¹ | – | – | kcat [1]: 5.3 s⁻¹
15 | B15 | 357% | 1.6e+08 M⁻¹ s⁻¹ | – | – | kcat [1]: 6.7 s⁻¹
16 | B16 | – | – | 41% | 1.9e+07 M⁻¹ s⁻¹ | –
17 | B17 | – | – | 382% | 1.8e+08 M⁻¹ s⁻¹ | –
18 | B18 | 571% | 2.6e+08 M⁻¹ s⁻¹ | – | – | kcat [1]: 8.8 s⁻¹
19 | B19 | – | – | 727% | 3.4e+08 M⁻¹ s⁻¹ | –

Row | Protein | % of WT kcat/KM [1] | kcat/KM [1] | % of WT kcat/KM [2] | kcat/KM [2] | other results
20 | B20 | 58% | 2.7e+07 M⁻¹ s⁻¹ | – | – | kcat [1]: 2.9 s⁻¹
21 | B21 | – | – | 264% | 1.2e+08 M⁻¹ s⁻¹ | –
22 | B22 | – | – | 318% | 1.5e+08 M⁻¹ s⁻¹ | –
23 | B23 | – | – | 366% | 1.7e+08 M⁻¹ s⁻¹ | –
24 | B24 | – | – | 135% | 6.2e+07 M⁻¹ s⁻¹ | –
25 | B25 | – | – | 292% | 1.3e+08 M⁻¹ s⁻¹ | –
26 | B26 | – | – | 105% | 4.8e+07 M⁻¹ s⁻¹ | –
27 | B27 | – | – | 44% | 2e+07 M⁻¹ s⁻¹ | –
28 | B28 | 173% | 8e+07 M⁻¹ s⁻¹ | – | – | KM (FX activation by FIXa in Xase complex with FVIIIa, PC/PS vesicles, Ca2+) [1]: 67.5 nM
29 | B29 | – | – | 810% | 3.7e+08 M⁻¹ s⁻¹ | –
30 | B30 | – | – | 85% | 3.9e+07 M⁻¹ s⁻¹ | –
31 | B31 | – | – | 30% | 1.4e+07 M⁻¹ s⁻¹ | –
32 | B32 | – | – | 54% | 2.5e+07 M⁻¹ s⁻¹ | –
33 | B33 | – | – | 564% | 2.6e+08 M⁻¹ s⁻¹ | –
34 | B34 | – | – | 320% | 1.5e+08 M⁻¹ s⁻¹ | –
35 | B35 | – | – | – | – | KM of FX activation by FIXa in the Xase complex (FVIIIa, PC/PS vesicles, Ca2+); fluorogenic FXa substrate [1]: 50 nM
36 | B36 | – | – | 274% | 1.3e+08 M⁻¹ s⁻¹ | –
37 | B37 | 422% | 1.9e+08 M⁻¹ s⁻¹ | – | – | kcat [1]: 4.8 s⁻¹
38 | B38 | 563% | 2.6e+08 M⁻¹ s⁻¹ | – | – | kcat [1]: 8.2 s⁻¹
